PMC4686654

Assays:
[1] = target: EGFP-RhoA (UniProt P61586); assay: fluorescence polarisation; 100 nM EGFP-RhoA.GDP titrated with Dbs; 20 mM Tris pH 7.4, 150 mM KCl, 1 mM TCEP, 1 mM EDTA (nucleotide-free RhoA); 25 °C
[2] = target: EGFP-RhoA (UniProt P61586); assay: fluorescence polarisation; 100 nM EGFP-RhoA.GDP titrated with Dbs; 20 mM Tris pH 7.4, 150 mM KCl, 1 mM TCEP, 2 mM MgCl2 (nucleotide-loaded RhoA); 25 °C

Chain of EGFP-RhoA (P61586 whole entry): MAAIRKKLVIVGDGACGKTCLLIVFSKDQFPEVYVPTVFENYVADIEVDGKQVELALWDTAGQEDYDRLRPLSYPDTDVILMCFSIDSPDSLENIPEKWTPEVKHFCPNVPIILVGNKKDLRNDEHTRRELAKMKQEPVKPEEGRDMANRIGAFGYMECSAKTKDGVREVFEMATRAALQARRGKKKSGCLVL

Kd [1]: 0.354 µM
Kd [2]: 21.2 µM
B1: guanine exchange factor Dbs 622-965 (domain or fragment)
chain: TGEEEESLAILRRHVMNELLDTERAYVEELLCVLEGYAAEMDNPLMAHLISTGLQNKKNILFGNMEEIYHFHNRNIPAGLESCIDCPELVGRCFLERMEEFQIYEKYCQNKPRSESLWRQCSDCPFFQECQKKLDHKLSLDSYLLKPVQRITKYQLLLKEMLKYSKHCEGAEDLQEALSSILGILKAVNDSMHLIAITGYDGNLGDLGKLLMQGSFSVWTDHKKGHTKVKELARFKPMQRHLFLHEKAVLFCKKREENGEGYEKAPSYSYKQSLNMTAVGITENVKGDTKKFEIWYNAREEVYIIQAPTPEIKAAWVNEIRKVLTSQLQACREASQHRALEQSH
